To fix the notation:
B1: MBP-PupR C-terminal cell surface signaling domain (domain or fragment, Pseudomonas capeferrum)
chain: QDWRADYHSRIGEQRRLTLADGTQVQLNTDSALNVAFDQQARRLRLVRGEMLITRPALADSRPLWVDTEHGRLESTLAQFNVRLHGQHTQATVYQGSVALQPALHAYPPILLGAGEQASFNQQGLLARQAVAAVAPAWSQGMLVAQGQPLAAFIEDLARYRRGHLACDPALAGLRVSGTFPLENTDKIIAAVAETLQLEVQHFTRYWVTLKPRMA
notes: PupR, inner membrane sigma regulator (anti-sigma factor) of Pseudomonas capeferrum; periplasmic C-terminal cell surface signaling domain; residues A240 to A300 are named as interface residues; A TEV site lies between MBP and the domain; the MBP fusion was used uncleaved in the ITC for solubility and stability; also called MBP-PupR CCSSD; PupR CCSSD; not shown: MBP, N-terminal, kept
B2: PupB N-terminal signaling domain Q69K (domain or fragment, Pseudomonas capeferrum)
chain: AQADFDIPAGPLAPALAHFGKSAHILLSYPTALTEGRSTSGLAGRFDIDQGLAILLAGTGLEASRGANASYSLQASASTG
notes: PupB of Pseudomonas capeferrum, N-terminal signaling domain, 82 residues; also called PupB NTSD Q69K; Q79K (misprint in two places); source: pET41 GST-PupB NTSD plasmid

Holding throughout (assay): ITC; MBP-PupR CCSSD (140-230 µM) titrated into PupB NTSD mutants (20-70 µM); 15 °C; 25 mM HEPES pH 7.5, 400 mM LiCl, 10% glycerol; triplicate, global single-site analysis (NITPIC, SEDPHAT)
(In general: Isothermal titration calorimetry measures the heat released or taken up as one component is titrated into another.)

Experiment [1] deals with B2. The following applies: both partners purified.
The target in experiment [2] is T1, PupB N-terminal signaling domain H72D (Pseudomonas capeferrum), P38047.
T1 chain: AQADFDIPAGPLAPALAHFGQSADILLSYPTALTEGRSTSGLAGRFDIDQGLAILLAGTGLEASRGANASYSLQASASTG
The following applies: remark: other sources report otherwise.

Experiment [3] deals with B1. The following applies: both partners purified.

Consider B1, for which the values for the dH in experiment [1] and in experiment [2] were -14.5 kcal/mol and -23 kcal/mol, respectively. This molecule returned a Kd in experiment [2] of 27.7 µM.
Consider B2, for which the Kd in experiment [3] turned out to be 1.55 µM.

As a reminder, the Kd is the concentration at which binding is half-saturated. Higher therefore signals a looser complex.

Values taken from paper PMC11429574, “Biophysical and Solution Structure Analysis of Critical Residues Involved in the Interaction between the PupB N-Terminal Signaling Domain and PupR C-Terminal Cell Surface Signaling Domain from Pseudomonas capeferrum” (Biomolecules, 2024).
